Publication PMC5501728

What was measured:
[1] = target: PGAM5 residues 81–289 (human) (UniProt Q96HS1); assay: AUC; sedimentation velocity, 4°C, 45,000 rpm, protein 50-60 μM in 50 mM Tris pH 7.5, 300 mM NaCl, 0.5 mM TCEP
[2] = target: ΔN54-PGAM5, His6 tag cleaved (human) (UniProt Q96HS1); assay: crystal structure; ΔN54-PGAM5-phosphate complex; sitting drop, 20°C, 18% PEG 3350, 0.1 M MES pH 5.7
[3] = target: ΔN90-PGAM5 (residues 90–289), His6 tag cleaved (human) (UniProt Q96HS1); assay: AUC; sedimentation equilibrium, dimer to monomers (self-association model, global fit); 0.7, 0.46 and 0.35 mg/ml in 50 mM HEPES pH 7.5, 300 mM NaCl, 0.5 mM TCEP; 12,000 and 18,000 rpm
[4] = target: ΔN90-PGAM5 (residues 90–289), His6 tag cleaved (human) (UniProt Q96HS1); assay: crystal structure; ΔN90-PGAM5 apo and phosphate complex; sitting drop, 20°C, PEG 3350 and 5000 MME 12-20%, 0.1 M HEPES pH 7.5
[5] = target: ΔN90-PGAM5 (residues 90–289), His6 tag cleaved (human) (UniProt Q96HS1); assay: AUC; sedimentation velocity, 4°C, 45,000 rpm, protein 50-60 μM in 50 mM Tris pH 7.5, 300 mM NaCl, 0.5 mM TCEP
[6] = target: ΔN90-PGAM5, His6 tag not cleaved (for analytical SEC) (human) (UniProt Q96HS1); assay: SEC; Superdex Increase s200 10/300 GL, 50 mM Tris pH 7.5, 200 mM NaCl; His-tagged proteins at several concentrations

“PGAM5 residues 81–289 (from UniProt Q96HS1 81-289) (domain or fragment)” was tested, and the stoichiometry N [1] was 2.

Work on “ΔN54-PGAM5, His6 tag cleaved (from UniProt Q96HS1 54-289) (domain or fragment)” yielded a stoichiometry N [2] of 12.

“ΔN90-PGAM5 (residues 90–289), His6 tag cleaved (from UniProt Q96HS1 90-289) (domain or fragment)” showed a Kd [3] of 480 nM, a stoichiometry N [4] of 2 and a stoichiometry N [5] of 2.

Substance “ΔN90-PGAM5, His6 tag not cleaved (for analytical SEC) (from UniProt Q96HS1 90-289) (domain or fragment)” has a stoichiometry N [6] of 2.
